B1: Homeobox protein cut-like 1, residues 941 to 1008; numbered along this chain, P39880 (parent)
chain: QEVDTIELTRQVKEKLAKNGICQRIFGEKVLGLSQGSVSDMLSRPKPWSKLTQKGREPFIRMQLWLNG
B2: Protein maelstrom homolog, residues 3 to 71; numbered along this chain, Q96JY0 (parent)
chain: NRKASRNAYYFFVQEKIPELRRRGLPVARVADAIPYCSSDWALLREEEKEKYAEMAREWRAAQGKDPGP

Variants of: B1
Test: abundance fitness (aPCA) (normalised: wild type 0, dead -1); higher = more abundant; growth selection in yeast, the domain comes from the species named
Conditions: Homo sapiens

Abundance fitness of substitutions, site by site:
R24: V -0.204 | Q -0.088
T9: Y -0.577 | H -0.142 | K -0.109
Q11: N -0.234 | V -0.274 | S -0.152 | P -0.092 | W -0.448 | R -0.084 | D -0.298
I25: L -0.09 | T 0.083
S49: C -0.237
F26: H -0.927 | C -0.709 | M -0.459 | T -0.796 | N -0.991 | D -1.05 | W 0.03
E2: K -0.074 | C -0.375 | R -0.157
K13: Q -0.1 | C -0.459 | D -0.262
W65: A -0.666 | T -1.31 | C -0.718
L51: Y -0.474 | A -0.723 | Q -0.969 | P -1.07 | W -0.08
Q53: R -0.053 | F -0.217 | M -0.095
F59: R -0.7 | M -0.568 | G -1.17
L33: V 0.025 | F -0.134
T52: F -0.187 | K -0.109 | L -0.018
M41: G -0.239 | I -0.016 | Q -0.171
G27: R -0.177 | I -0.067 | C -0.019 | T -0.201
N67: E 0.072 | Y -0.197 | K 0.045
R61: V -0.487 | P -0.788 | Y -0.365 | Q -0.131 | I -0.706 | A -0.183 | W -0.619
P47: W 0.056 | R -0.134 | M -0.12 | I -0.286

Variants of: B2
Test: as above
Conditions: Homo sapiens

Abundance fitness of substitutions, site by site:
S5: T -0.202 | A 0.013 | G -0.03 | P -0.24 | Q -0.088 | M -0.118 | D 0.12 | V -0.087 | C -0.655 | L -0.593 | I 0.278 | E 0.137 | Y -0.36 | K -0.206 | R -0.228
N7: G 0.01 | Q -0.147 | T 0 | M 0.015 | V -0.535 | L -0.168 | D 0.212 | I -0.355 | H -0.267 | W -0.257 | S 0.045 | Y -0.44 | P -0.285 | C -0.497 | F -0.233 | K -0.05 | A -0.993
R6: V -0.467 | K -0.419 | T 0.109 | S -0.228 | L 0.046 | P -0.179 | E 0.061 | M -0.064 | Q -0.447 | A -0.097 | C -0.123 | Y -0.175
A4: T 0.049 | E 0.159 | V -0.001 | W -0.262 | G 0.032 | D -0.462 | S 0 | M -0.011 | R -0.09 | L 0.048 | C -0.395 | N -0.371 | P -0.246 | H -1.04 | K -0.095
R2: M 0.093 | S 0.091 | P 0.06 | H 0.058 | T 0.126 | Y 0.078 | N -0.2 | G 0.021 | E 0.124 | W -0.141 | K 0.045 | F -0.095 | C 0.123 | V -0.288 | D 0.122 | L -0.013 | A -0.407 | I 0.162
K3: N -0.001
Y9: A -0.53 | C -0.289 | D -0.185
A8: E -0.294 | P -0.221 | L -0.783 | N -0.429 | M -0.357 | F -0.936 | K -0.483 | I -0.27 | Q -0.304 | Y -0.696 | D -0.046 | G -0.057 | T -0.325 | S -0.177 | C -0.269 | H -0.498 | R -0.385 | V -0.796

From the Human Domainome abundance scans (Beltran et al. 2025)
